Key:
[1] = target: dsc-Agg5A (donor strand complemented major pilin subunit Agg5A of AAF/V) (enteroaggregative E. coli); experiment: SAXS; engineered subunit samples (monomer fractions of the gel filtration) in solution, 10 °C, dilutions 1:1 and 1:2; molecular weight and aggregation number from Guinier analysis; self-association
[2] = target: dsc-Agg5AB (chimeric donor strand complemented construct of minor pilin subunit Agg3B and major pilin subunit Agg5A) (enteroaggregative E. coli); experiment: as above

Row | Substance | stoichiometry N [1] | stoichiometry N [2]
1 | dsc-Agg5A (donor strand complemented major pilin subunit Agg5A of AAF/V) (domain or fragment) | 2 | 
2 | dsc-Agg5AB (chimeric donor strand complemented construct of minor pilin subunit Agg3B and major pilin subunit Agg5A) |  | 6.8

Source: publication PMC10545799
